Experimental data published in patent US20210101944A1 (WEST CHINA HOSPITAL SICHUAN UNIVERSITY, published 2021).
Residue numbers refer to the chain shown, from its start.

Assays:
[1] = molecular target: T1, death receptor fusion protein DR4-Fc (UniProt O00220 24-239, limits assumed); test: BLI, DR4-Fc on protein A-coated probe; TRAIL01 to DR4-Fc
T1 construct: Captured on a protein A-coated BLI probe; also called TRAIL R1; not shown: Fc part

[2] = molecular target: T2, death receptor fusion protein DR5-Fc (UniProt O14763 56-182, limits assumed); test: BLI, DR5-Fc on protein A-coated probe; TRAIL01 to DR5-Fc
T2 construct: Captured on a protein A-coated BLI probe; also called TRAIL R2; not shown: Fc part
T2 sequence (O14763 56-182 limits assumed): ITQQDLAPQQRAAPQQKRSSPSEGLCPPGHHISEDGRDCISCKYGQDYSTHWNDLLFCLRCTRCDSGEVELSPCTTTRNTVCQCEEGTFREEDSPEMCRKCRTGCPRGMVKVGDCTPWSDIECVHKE

[3] = molecular target: T2, death receptor fusion protein DR5-Fc; test: Biolayer interferometry, DR5-Fc captured on a protein A probe, TRAIL01 at 5-250 nM
Experimental: (§1) The binding constant Ka and the dissociation constant Kd were determined, and then the affinity KD was calculated according to the formula (KD=Kd/Ka).

[4] = molecular target: T1, death receptor fusion protein DR4-Fc; test: BLI, DR4-Fc on protein A-coated probe; IgBD-TRAIL01 to DR4-Fc
Experimental: as §1

[5] = molecular target: T2, death receptor fusion protein DR5-Fc; test: BLI, DR5-Fc on protein A-coated probe; IgBD-TRAIL01 to DR5-Fc
Experimental: as §1

[6] = molecular target: T2, death receptor fusion protein DR5-Fc; test: Biolayer interferometry, DR5-Fc captured on a protein A probe, IgBD-TRAIL01 at 10-500 nM
Experimental: as §1

Human IgG = molecular target: T3, Human IgG (human); test: ELISA, coated hIgG, pH 7.4, detection with biotin-labeled anti-TRAIL antibody and HRP-streptavidin
T3 construct: also called hIgG
Experimental: 1) ELISA Human IgG (hIgG) or mouse IgG (mIgG) was coated in a well plate for ELISA. […] After incubating at 37° C. for 1 h, excess protein was removed.

[7] = molecular target: T1, death receptor fusion protein DR4-Fc; test: BLI, DR4-Fc on protein A-coated probe (method of Example 3)
Experimental: as §1

[8] = molecular target: T2, death receptor fusion protein DR5-Fc; test: BLI, DR5-Fc on protein A-coated probe (method of Example 3)
Experimental: as §1

T1 sequence (O00220 24-239 limits assumed): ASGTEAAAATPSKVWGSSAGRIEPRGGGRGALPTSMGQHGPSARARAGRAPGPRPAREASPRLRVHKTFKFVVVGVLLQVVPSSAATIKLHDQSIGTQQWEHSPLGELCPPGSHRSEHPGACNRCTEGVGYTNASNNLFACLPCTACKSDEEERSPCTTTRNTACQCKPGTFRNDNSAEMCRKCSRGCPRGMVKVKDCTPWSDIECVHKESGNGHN

B1: TRAIL01 (ligand)
chain: VRERGPQRVAAHITGTRGRSNTLSSPNSKNEKALGRKINSWESSRSGHSFLSNLHLRNGELVIQEKGFYYIYSQTYFRFQEEIKENTKNDKQMVQYIYKYTSYPDPILLMKSARNSCWSKDAEYGLYSIYQGGLFELKKDDRIFVSVTNEHLIDMDHEASFFGAFLVG
notes: Control protein without IgBD; also called TRAIL1
- Kd [1]: 4 nM
- Kd [2]: 1.5 nM
- Kd [3]: 1.43 nM

B2: fusion protein IgBD-TRAIL01 (other)
chain: TTYKLVINGKTLKGETTTKAVDAETAAAAFAQYARRNGVDGVWTYDDATKTFTVTEGGGGSGGGGSGGGGSVRERGPQRVAAHITGTRGRSNTLSSPNSKNEKALGRKINSWESSRSGHSFLSNLHLRNGELVIQEKGFYYIYSQTYFRFQEEIKENTKNDKQMVQYIYKYTSYPDPILLMKSARNSCWSKDAEYGLYSIYQGGLFELKKDDRIFVSVTNEHLIDMDHEASFFGAFLVG
notes: also called IgBD-TRAIL1
- Kd [4]: 4.33 nM
- Kd [5]: 1.43 nM
- Kd [6]: 1.5 nM
- EC50 (read off the curve) (Human IgG): ~0.4 nM

B3: fusion protein IgBD-TRAIL02 (other)
chain: B2 chain with A27E, A28K, A31K, R35N, R36D
notes: No tag is stated
- Kd [7]: 3.96 nM
- Kd [8]: 1.79 nM
